Experimental data as given in patent US20170052184A1 (published 2017).
Ends that are not written are not given here.

Columns and labels:
Assay in all cases: EIA; Ab 2000 ng/mL captured on anti-mouse Fc; bt-peptide 500 ng/mL
[1] = target: T1, WT1STHV biotin labeled HCV core peptide (hepatitis C virus, biotin labeled)
T1 peptide: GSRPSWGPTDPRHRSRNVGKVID

[2] = target: T2, Mut1T110N biotin labeled HCV core peptide (hepatitis C virus, biotin labeled)
T2 peptide: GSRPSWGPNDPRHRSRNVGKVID

[3] = target: Mut6T110S biotin labeled HCV core peptide (hepatitis C virus)
[4] = target: T3, C113WT biotin labeled HCV core peptide (hepatitis C virus, also: biotin labeled, position not given here)
T3 peptide: RGSRPSWGPTD

[5] = target: T4, C113T109N biotin labeled HCV core peptide (hepatitis C virus, also: biotin labeled, position not given here)
T4 peptide: RGSRPSWGPND

B1: HCV Neo4 monoclonal antibody (antibody, V domains shown)
VH: QIQLKESGPAVIKPSQSLSLTCIVSGFSITSSVYCWQWIRQPPGKGLEWMGRICYDGSVDYSPSITSRGTISRDTSLNKVFFQLSSVTNEDTAMYYCSRENHIDYYDTTYPSFDVWGAGTTVTVSS
VL: DIVLTQSPASLIVSLGQRATISCRASKSVNEYGYTYMHWYQQKPGLPPKLLIYLASNLDSGVPARFSGSGSGTDFTLNIHPVEEEDAATYYCQHSRELPYTFGGGTKLEIKR
signal at 492 nm [1]: 1.9 OD 492 nm
signal at 492 nm [2]: 0.0882 OD 492 nm
signal at 492 nm [3]: 1.17 OD 492 nm
signal at 492 nm [4]: 0.0766 OD 492 nm
signal at 492 nm [5]: 0.059 OD 492 nm
